Data on ten molecules can be found in patent US20140154255A1 (AbbVie / Abbott, published 2014).

Assay [1] deals with T1, VEGF (R&D systems, Minneapolis, Minn.) (UniProt P15692-4 27-191, limits assumed). The assay is described as follows: BIAcore SPR. Here is the method:
(§1) RL was kept low to minimize avidity due to the dimeric nature of VEGF. No capture of the antibody was made on the reference surface to serve as a negative control. Subsequently, VEGF was injected to all flow cells at a flow rate of 50 μL/min for two minutes to monitor association followed by a 25-minute flow of HBS-P running buffer (10 mM HEPES, 150 mM sodium chloride, 0.005% P-20, pH 7.4) to monitor the dissociation phase. At each cycle, VEGF, in 6 different concentrations of VEGF ranging between 0 nM and 512 nM and at four-fold increments, was injected over the surface. […] Binding data were fit to the 1:1 Langmuir model to extract binding constants from the BIAevaluate software. Double referencing was applied in each analysis to eliminate background responses from the reference surface and buffer only control. All the binding kinetics data were analyzed at least three separate determinations.
In general terms: SPR reads the build-up and loss of mass on a sensor chip optically.

Assay [2] addresses T1, VEGF (R&D systems, Minneapolis, Minn.). The assay is described as follows: BIAcore SPR, mutant/WT. Here is the method: as §1
For assay [3] the target is unchanged. Briefly: BIAcore SPR, WT/mutant. Here is the method: as §1
For assay [4] the target is unchanged. The assay is described as follows: BIAcore SPR, improvement over WT. Here is the method: as §1

Broadly, the Kd is the equilibrium constant for the complex coming apart. The term koff denotes a measure of how fast the partners let go of each other. What is called kon is a measure of how fast the partners come together.

T1 sequence (P15692 other isoform, or with tags, fused parts or gaps limits assumed): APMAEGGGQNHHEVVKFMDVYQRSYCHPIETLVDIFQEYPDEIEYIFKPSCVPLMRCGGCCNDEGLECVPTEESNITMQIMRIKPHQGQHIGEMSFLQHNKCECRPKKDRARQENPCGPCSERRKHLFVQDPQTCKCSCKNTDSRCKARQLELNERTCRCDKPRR

B1: 83 (antibody, human IgG1, V domains shown)
VH: EVQLVESGGGLVQPGGSLRLSCAASGYTFTFYGMNWVRQAPGKGLEWVGWINTYTGEPTYAADFKRRFTFSLDTSKSTAYLQMNSLRAEDTAVYYCAKYPPYDGGSHWYFDVWGQGTLVTVSS
VL: DIQMTQSPSSLSASVGDRVTITCSASQDISNYLNWYQQKPGKAPKVLIYFTSSLHSGVPSRFSGSGSGTDFTLTISSLQPEDFATYYCQQYSTVPWTFGQGTKVEIKR
B1: in assay [1], the Kd was found to be 0.106 nM, the koff stood at 0.000194 s⁻¹ and the on-rate constant (kon) stood at 1.88e+06 M⁻¹ s⁻¹. This molecule displayed a Δkon in assay [2] of 10.4 fold. For the same molecule, the Δkoff in assay [3] was found to be 1.8 fold. In addition, the ΔKD in assay [4] was 18.6 fold.

B2: 86 (seventh row of Table 7) (antibody, human IgG1, V domains shown)
VH: EVQLVESGGGLVQPGGSLRLSCAASGYTFTFYGMNWVRQAPGKGLEWVGWINTYTGEPTYAADFKRRFTFSLDTSKSTAYLQMNSLRAEDTAVYYCAKYPHYDGGSHWYFDVWGQGTLVTVSS
VL: DIQMTQSPSSLSASVGDRVTITCSASQDISNYLNWYQQKPGKAPKVLIYFTSSLHSGVPSRFSGSGSGTDFTLTISSLQPEDFATYYCQQYSTVPWTFGQGTKVEIK
notes: defined here by its substitutions; copies: 2 + 2
As to B2, in assay [1], the Kd came to 0.282 nM, the koff is 0.000273 s⁻¹ and the kon worked out at 968000 M⁻¹ s⁻¹. This molecule returned a Δkon in assay [2] of 5.4 fold. For the same molecule, in assay [3], the Δkoff was 1.3 fold. For the same molecule, the ΔKD in assay [4] amounted to 7 fold.

B3: 84 (antibody, human IgG1, V domains shown)
VH: EVQLVESGGGLVQPGGSLRLSCAASGYTFTFYGMNWVRQAPGKGLEWVGWINTYTGEPTYAADFKRRFTFSLDTSKSTAYLQMNSLRAEDTAVYYCAKYPPYEGSSHWYFDVWGQGTLVTVSS
VL: DIQMTQSPSSLSASVGDRVTITCSASQDISNYLNWYQQKPGKAPKVLIYFTSSLHSGVPSRFSGSGSGTDFTLTISSLQPEDFATYYCQQYSTVPWTFGQGTKVEIKR
With B3, in assay [1], the Kd is 0.128 nM, the koff was 0.000182 s⁻¹ and the kon amounted to 1.6e+06 M⁻¹ s⁻¹. Further, the Δkon in assay [2] was determined as 8.9 fold. For the same molecule, in assay [3], the Δkoff stood at 1.9 fold. In assay [4], this molecule came in with a ΔKD of 15.3 fold.

B4: 85 (antibody, human IgG1, V domains shown)
VH: EVQLVESGGGLVQPGGSLRLSCAASGYTFTFYGMNWVRQAPGKGLEWVGWINTYTGEPTYAADFKRRFTFSLDTSKSTAYLQMNSLRAEDTAVYYCAKYPEYEGSSHWYFDVWGQGTLVTVSS
VL: DIQMTQSPSSLSASVGDRVTITCSASQDISNYLNWYQQKPGKAPKVLIYFTSSLHSGVPSRFSGSGSGTDFTLTISSLQPEDFATYYCQQYSTVPWTFGQGTKVEIKR
In assay [1], B4 gave a Kd of 0.14 nM, a koff of 0.000175 s⁻¹ and a kon of 1.25e+06 M⁻¹ s⁻¹. Further, the Δkon in assay [2] stood at 6.9 fold. This molecule showed a Δkoff in assay [3] of 2 fold. This molecule registered a ΔKD in assay [4] of 14.1 fold.

B5: 86 (antibody, human IgG1, V domains shown)
VH: EVQLVESGGGLVQPGGSLRLSCAASGYTFTFYGMNWVRQAPGKGLEWVGWINTYTGEPTYAADFKRRFTFSLDTSKSTAYLQMNSLRAEDTAVYYCAKYPDYEGSSHWYFDVWGQGTLVTVSS
VL: DIQMTQSPSSLSASVGDRVTITCSASQDISNYLNWYQQKPGKAPKVLIYFTSSLHSGVPSRFSGSGSGTDFTLTISSLQPEDFATYYCQQYSTVPWTFGQGTKVEIKR
In assay [1], B5 showed a Kd of 0.179 nM, a koff of 0.000238 s⁻¹ and a kon of 1.33e+06 M⁻¹ s⁻¹. Further, the Δkon in assay [2] stood at 7.4 fold. The Δkoff in assay [3] was 1.5 fold. Also, the ΔKD in assay [4] came to 11 fold.

B6: 94 (antibody, human IgG1, V domains shown)
VH: EVQLVESGGGLVQPGGSLRLSCAASGYTFTFYGMNWVRQAPGKGLEWVGWINTYTGEPTYAADFKRRFTFSLDTSKSTAYLQMNSLRAEDTAVYYCAKYPHYYGGSHWYFDVWGQGTLVTVSS
VL: DIQMTQSPSSLSASVGDRVTITCSASQDISNYLNWYQQKPGKAPKVLIYFTSSLHSGVPSRFSGSGSGTDFTLTISSLQPEDFATYYCQQYSTVPWTFGQGTKVEIKR
B6: in assay [1], binding was put at a Kd of 0.857 nM, the koff worked out at 0.00022 s⁻¹ and the kon turned out to be 258000 M⁻¹ s⁻¹. In addition, in assay [2], the Δkon was determined as 1.4 fold. In addition, in assay [3], the Δkoff is 1.6 fold. Besides, the ΔKD in assay [4] worked out at 2.3 fold.

B7: 87 (antibody, human IgG1, V domains shown)
VH: EVQLVESGGGLVQPGGSLRLSCAASGYTFTFYGMNWVRQAPGKGLEWVGWINTYTGEPTYAADFKRRFTFSLDTSKSTAYLQMNSLRAEDTAVYYCAKYPEYDGGSHWYFDVWGQGTLVTVSS
VL: DIQMTQSPSSLSASVGDRVTITCSASQDISNYLNWYQQKPGKAPKVLIYFTSSLHSGVPSRFSGSGSGTDFTLTISSLQPEDFATYYCQQYSTVPWTFGQGTKVEIKR
As to B7, in assay [1], the affinity, expressed as Kd, was 0.204 nM; the koff was found to be 0.00016 s⁻¹; the kon was found to be 824000 M⁻¹ s⁻¹. In assay [2], this molecule gave a Δkon of 4.6 fold. Besides, the Δkoff in assay [3] came out at 2.2 fold. Besides, the ΔKD in assay [4] was 9.6 fold.

B8: 90 (antibody, human IgG1, V domains shown)
VH: EVQLVESGGGLVQPGGSLRLSCAASGYTFTFYGMNWVRQAPGKGLEWVGWINTYTGEPTYAADFKRRFTFSLDTSKSTAYLQMNSLRAEDTAVYYCAKYPDYYGSSHWYFDVWGQGTLVTVSS
VL: DIQMTQSPSSLSASVGDRVTITCSASQDISNYLNWYQQKPGKAPKVLIYFTSSLHSGVPSRFSGSGSGTDFTLTISSLQPEDFATYYCQQYSTVPWTFGQGTKVEIKR
With B8, in assay [1], binding was put at a Kd of 0.311 nM, the koff stood at 0.000197 s⁻¹ and the kon turned out to be 645000 M⁻¹ s⁻¹. For the same molecule, the Δkon in assay [2] was 3.6 fold. Besides, the Δkoff in assay [3] turned out to be 1.8 fold. The molecule also gave a ΔKD in assay [4] of 6.3 fold.

B9: 96 (antibody, human IgG1, V domains shown)
VH: EVQLVESGGGLVQPGGSLRLSCAASGYTFTFYGMNWVRQAPGKGLEWVGWINTYTGEPTYAADFKRRFTFSLDTSKSTAYLQMNSLRAEDTAVYYCAKYPPYYGGSHWYFDVWGQGTLVTVSS
VL: DIQMTQSPSSLSASVGDRVTITCSASQDISNYLNWYQQKPGKAPKVLIYFTSSLHSGVPSRFSGSGSGTDFTLTISSLQPEDFATYYCQQYSTVPWTFGQGTKVEIKR
B9: in assay [1], the Kd worked out at 1.75 nM, the koff worked out at 0.000379 s⁻¹ and the kon is 225000 M⁻¹ s⁻¹. Besides, the Δkon in assay [2] was 1.3 fold. The same molecule displayed a Δkoff in assay [3] of 0.9 fold. This molecule showed a ΔKD in assay [4] of 1.1 fold.

B10: 89 (antibody, human IgG1, V domains shown)
VH: EVQLVESGGGLVQPGGSLRLSCAASGYTFTFYGMNWVRQAPGKGLEWVGWINTYTGEPTYAADFKRRFTFSLDTSKSTAYLQMNSLRAEDTAVYYCAKYPPYDGSSHWYFDVWGQGTLVTVSS
VL: DIQMTQSPSSLSASVGDRVTITCSASQDISNYLNWYQQKPGKAPKVLIYFTSSLHSGVPSRFSGSGSGTDFTLTISSLQPEDFATYYCQQYSTVPWTFGQGTKVEIKR
In assay [1], B10 gave a dissociation constant (Kd) of 0.282 nM, a koff of 0.000249 s⁻¹ and a kon of 904000 M⁻¹ s⁻¹. This molecule displayed a Δkon in assay [2] of 5 fold. In addition, the Δkoff in assay [3] stood at 1.4 fold. This molecule also displayed a ΔKD in assay [4] of 7 fold.
